Reference: US20210100839A1 (CELLECTIS, published 2021)

B1: anti-CD22 CAR9 (prot CAR9) (other)
chain: QVQLQQSGPGLVQPSQTLSLTCVISGDSVSSNSATWNWIRQSPSRGLEWLGRTYYRSKWYNDYAVSVKSRITINPDTSKNQFSLQLNSVTPEDTAVYYCARDGDGGSYYDYYYYGMDVWGQGTTVTVSGGGGSGGGGSGGGGSDIQLTQSPSSLSTSVGDRVTITCRASQSISTYLNWYQQKPGKAPKLLIYAASNLQSGVPSRFSGSGSGTDFTLTISSLQPEDFATYFCQQSYTTPITFGQGTRLEIKTTTPAPRPPTPAPTIASQPLSLRPEACRPAAGGAVHTRGLDFACDIYIWAPLAGTCGVLLLSLVITLYCKRGRKKLLYIFKQPFMRPVQTTQEEDGCSCRFPEEEEGGCELRVKFSRSADAPAYQQGQNQLYNELNLGRREEYDVLDKRRGRDPEMGGKPRRKNPQEGLYNELQKDKMAEAYSEIGMKGERRRGKGHDGLYQGLSTATKDTYDALHMQALPPR
notes: Original clone number 9; Single-chain CAR on T cells; range counted on the printed copy; also called CAR9 7
B2: anti-CD22 CAR15 (prot CAR15) (other)
chain: QVQLVQSGAEVKKPGASVKVSCKASGYTFTSYYMHWVRQAPGQGLEWMGIINPSGGSTSYAQKFQGRVTMTRDTSTSTVYMELSSLRSEDTAVYYCAREDSGSGAFDIWGQGTLVTVSGGGGSGGGGSGGGGSEIVLTQSPLSLPVTPGEPASISCRSSRSLLSYHGYNYLDWYLQKPGQSPQLLIFVGSNRAPGVPDRFSGSGSGTDFTLNISRVEAEDVGVYYCMQSLQTPRTFGQGTKVEIKTTTPAPRPPTPAPTIASQPLSLRPEACRPAAGGAVHTRGLDFACDIYIWAPLAGTCGVLLLSLVITLYCKRGRKKLLYIFKQPFMRPVQTTQEEDGCSCRFPEEEEGGCELRVKFSRSADAPAYQQGQNQLYNELNLGRREEYDVLDKRRGRDPEMGGKPRRKNPQEGLYNELQKDKMAEAYSEIGMKGERRRGKGHDGLYQGLSTATKDTYDALHMQALPPR
notes: Original clone number 15; Single-chain CAR on T cells; range counted on the printed copy; also called CAR15 10
B3: anti-CD22 CAR2 (prot CAR2) (other)
chain: QVQLQQSGPGLVKPSQTLSLTCAISGDSVSSNSAAWNWIRQSPSRGLEWLGRTYYRSKWYNDYAVSVKSRITINPDTSKNQFSLQLNSVTPEDTAVYYCARASMTGGYSYGDAFDIWGQGTLVTVSGGGGSGGGGSGGGGSAIRMTQSPSSLSASVGDRVTITCRASQSISSYLNWYQQKPGKAPKLLIYAASSLQSGVPSRFSGSGSGTDFSLTISSLQPEDSATYYCQQTYSTPLTFGQGTKVEIKTTTPAPRPPTPAPTIASQPLSLRPEACRPAAGGAVHTRGLDFACDIYIWAPLAGTCGVLLLSLVITLYCKRGRKKLLYIFKQPFMRPVQTTQEEDGCSCRFPEEEEGGCELRVKFSRSADAPAYQQGQNQLYNELNLGRREEYDVLDKRRGRDPEMGGKPRRKNPQEGLYNELQKDKMAEAYSEIGMKGERRRGKGHDGLYQGLSTATKDTYDALHMQALPPR
notes: Single-chain CAR on T cells; range counted on the printed copy
B4: anti-CD22 CAR7 (prot CAR7) (other)
chain: QVQLQQSGPGLVEPSQTLSLTCAISGDSVSSDSVAWNWIRQSPSRGLEWLGRTYYRSTWYNDYAGSVKSRITINPDTSKNQFSLQLNSVTPEDTAVYYCARDRNGMDVWGQGTMVTVSGGGGSGGGGSGGGGSDIVMTQSPSSLSASVGDRVTITCRASQSISSYLNWYQQKPGKAPKLLIYDASNLETGVPSRFSGSGSGTDFTFTITSLQPEDFATYYCQQSYTTPLTFGGGTKVEIKTTTPAPRPPTPAPTIASQPLSLRPEACRPAAGGAVHTRGLDFACDIYIWAPLAGTCGVLLLSLVITLYCKRGRKKLLYIFKQPFMRPVQTTQEEDGCSCRFPEEEEGGCELRVKFSRSADAPAYQQGQNQLYNELNLGRREEYDVLDKRRGRDPEMGGKPRRKNPQEGLYNELQKDKMAEAYSEIGMKGERRRGKGHDGLYQGLSTATKDTYDALHMQALPPR
notes: Single-chain CAR on T cells; range counted on the printed copy; also called CAR7 5
B5: anti-CD22 CAR8 (prot CAR8) (other)
chain: QVQLQQSGPGLVKPSQTLSLTCAISGDSVSSSSAAWNWIRQSPSRGLEWLGRTYYRSAWYNDYAVSVKSRITINPDTSKNQFSLQLNSVTPEDTAVYYCARESVLLDGMDVWGRGTTVTVSGGGGSGGGGSGGGGSAIRMTQSPSTLSASVGDRVTITCRASQSISTYLNWYQQKAGKAPRLLIHDASSLQSGVPSRFSGSGSGTDFTLTISSLQPEDFATYYCQQSYSTPLTFGGGTKVEIKTTTPAPRPPTPAPTIASQPLSLRPEACRPAAGGAVHTRGLDFACDIYIWAPLAGTCGVLLLSLVITLYCKRGRKKLLYIFKQPFMRPVQTTQEEDGCSCRFPEEEEGGCELRVKFSRSADAPAYQQGQNQLYNELNLGRREEYDVLDKRRGRDPEMGGKPRRKNPQEGLYNELQKDKMAEAYSEIGMKGERRRGKGHDGLYQGLSTATKDTYDALHMQALPPR
notes: Original clone number 8; Single-chain CAR on T cells; range counted on the printed copy; also called CAR8 6
B6: anti-CD22 CAR3 (prot CAR3) (other)
chain: QVQLQQSGPGLVEPSQTLSLTCAISGDSVSSDSVAWNWIRQSPSRGLEWLGRTYYRSTWYNDYAGSVKSRITINPDTSKNQFSLQLTSVTPEDTAVYYCTRSRHNTFRGMDVWGQGTTVTVSGGGGSGGGGSGGGGSDIVMTQSPSSLSASVGDRVTITCRASQTISSYLNWYQQKPGKAPKLLIYDASSLQSGVPSRFSGSGSGTDFTLTINSLQPEDFATYYCQQSYTTPITFGQGTRLEIKTTTPAPRPPTPAPTIASQPLSLRPEACRPAAGGAVHTRGLDFACDIYIWAPLAGTCGVLLLSLVITLYCKRGRKKLLYIFKQPFMRPVQTTQEEDGCSCRFPEEEEGGCELRVKFSRSADAPAYQQGQNQLYNELNLGRREEYDVLDKRRGRDPEMGGKPRRKNPQEGLYNELQKDKMAEAYSEIGMKGERRRGKGHDGLYQGLSTATKDTYDALHMQALPPR
notes: as for B3

The binders below were run against T1, recombinant CD22 protein corresponding to the whole extracellular domain of CD22 (human; mouse, UniProt P20273 20-687) (assay: flow cytometry, CAR T cells stained with recombinant full length CD22 protein).
T1 construct: range 20-687; also called full length recombinant CD22 protein; CD22 recombinant protein (full length)
Description: CAR detection at the surface of T-cells is performed using a recombinant protein consisting on the extracellular domain of the human CD22 protein (whole protein, distal portion of CD22 or proximal portion of CD22) fused together with a murine IgG1 Fc fragment. Binding of this protein to the CAR molecule is detected with a PE-conjugated secondary antibody (Jackson Immunoresearch) targeting the mouse Fc portion of the protein, and analyzed by flow cytometry.
Then, CAR positive cells frequency (% of CAR-expressing cells over the total number of cells) was assessed by flow cytometry using a recombinant CD22 protein corresponding to the membrane proximal domain of CD22 or a recombinant CD22 protein corresponding to the whole extracellular domain of CD22 (FIG. 5).

Binding result, binds:
B1
B2
B3
B4
B5
B6
